# Test results from US20240352121A1, “LAIR-1 AGONISTIC ANTIBODIES AND METHODS OF USE THEREOF” (NEXTCURE, INC., priority 2023, published 2024).
# Columns and labels:
# [1] = test system: SHP-1; assay: SHP-1 phosphorylation in primary patient AML blasts (Western blot); type: cell-based, human
# Experimental: FIGS. 4A-4O show the collagen matrix is vital to LAIR-1 induced AML cell death. (FIGS. 4A-C). Flow cytometry quantification of primary live, dead, or apoptotic total blood leukocytes after ex vivo treatment with 10 μg/mL IgG isotype control (gray) or LAIR-1 mAb (red) in the presence (FIG. 4A) or absence (FIG. 4B) of exogenous collagen, or (FIG. 4C), CD451^Lo SSC^Lo blast cells in the presence of isotype control or LAIR-1 mAb. N=3 technical replicates. […] Each dot represents an individual donor. Red shading highlights surface expression >20000 arbitrary units. Blue shading highlights expression <20000 units. Line represents simple linear regression. […] N=4-7 donors. […] Mean pixel density from Western blotting normalized to isotype control condition and graphed relative to total SHP-1. N=3 technical replicates. […] FIGS. 4M and 4N) 4E-BP1 expression as measured by Lumit assay (FIG. 4M) or cleaved caspase-7 as measured by Western blot (FIG. 4N) of cells treated as shown in FIGS. 4I-4K. […] P values calculated by Student's t test. […]
# For assessment of signaling in healthy cells, human monocytes were isolated from PBMCs from two donors using a StemCell monocyte isolation kit (StemCell, Vancouver, BC). […] Data were quantified using FIJI (NIH, MD).
# [2] = test system: MV4-11 cells; assay: Phospho-array on in vivo grown MV4-11 cells, subcutaneous CDX model; set-up: species or system NSG mice; conditions: 10 mg/kg weekly i.p.
# Experimental: NSG mice were injected with 2e6 THP-1 luciferase cells or 2e6 MV4-11-luciferase cells via tail vein injection. Leukemia progression was quantified by i.p. injection of 100 μL bioluminescent substrate and IVIS imaging 8 minutes post injection. Progression was assessed weekly staring on Day 7 post-challenge. 10 mg/kg mab treatment was performed by i.p injection starting on day 8 and continuing twice a week until the end of the study. For the subcutaneous engraftment model, NSG mice were subcutaneously injected on the right flank with 5e6 MV4-11-Luc-LAIR-1^OE cells. Mice were treated by weekly i.p. injection of 10 mg/kg mAb. Tumor growth was measured by calipers twice weekly until end point.
# [3] = test system: AML patient bone-marrow cells (LSCs); assay: Colony forming unit assay, AML patient bone-marrow; type: cell-based, human; conditions: titrated concentrations, dose-response; vs isotype or vehicle
# Experimental: (§1) Cryopreserved AML bone-marrow cells or healthy donor CD34 cells were thawed and plated in 96 wells plates. Cells were engaged with the indicated concentrations of LAIR-1 mAb or isotype control for 30 min at room temperature. Subsequently, cells were diluted in IMDM with 2% FBS and mixed with semisolid methylcellulose-based medium (MethoCult H4435 Enriched, StemCell Technologies, Vancouver, Canada) which contains human cytokines (stem cell factor, IL-3, IL-6, EPO, G-CSF, GM-CSF). Then, between 1e4 and 2.5e5 LSCs, or, between 1e3 and 5e3 healthy donor CD34 cells per well were plated on 6-well SmartDishes (StemCell Technologies, Vancouver, Canada). The cell-loaded plates were incubated at 37° C. with 5% CO2 in air and ≥95% humidity. On day 14, colony formation was counted by STEMvision (StemCell Technologies, Vancouver, Canada), an automated and standardized colony counting instrument. The automated results were confirmed and edited manually by the STEMvision Colony Marker software.
# [4] = test system: bone-marrow cells from healthy control donors; type: cell-based, human
# Experimental: as §1
molecule,measurement,setting,value
"LAIR-1 mAb: humanized agonist anti-LAIR-1 mAb, IgG1 backbone; h11B3 VL-2 (SEQ ID NO: 16), h11B3 VH-3 (SEQ ID NO: 27) (antibody, V domains shown, IgG1 constant regions; Synthetic: h11B3 VH-3; Synthetic: h11B3 VL-2) VH: EVQLVESGGGLVQPGGSLKLSCAASGFTFNTNAMYWVRQAPGKGLEWVGRIRSKSSNYATYYAASVKGRFTISRDDSKNTLYLQMNSLKTEDTAVYYCVRGGSGFFAYWGQGTLVTVSS VL: DIQMTQSPSSLSASLGDRVTITCKASEDIYIRLAWYQQKPGKAPRLLISTATSLETGVPSRFSGSGSGTDYTFTISSLQPEDIATYYCQQYWSTPYTFGGGTRLEIK",increase of SHP-1 phosphorylation relative to control,[1]; LAIR-1 mAb alone,25%
same,increase of SHP-1 phosphorylation relative to control,[1]; cotreatment with LAIR-1 mAb and collagen,50%
same,MAPK pathway,[2],significantly suppressed
same,"activation of mTORC, AKT, and NF-kB",[2],inhibited activation
same,CFU formation,[3],significantly decreased
same,CFU formation,[4],no change
